According to paper PMC3536650:

Experiments:
Test in all cases: cross-linking; engineered disulfide bridge in purified EF1; overnight with 400 µM DTNB (oxidised), 10 mM DTT (reduced), 30 mM DTT (re-reduced); SDS-PAGE with non-oxidizing sample buffer, Coomassie; yield from the change of the γ-band, oxidized against reduced; immunoblots against α and γ
[1] = molecular target: E. coli F1-ATPase subunit α with αP280C, in the cysteine-free EF1 mutant GH54 (Escherichia coli) (UniProt P0ABB0)
[2] = molecular target: E. coli F1-ATPase subunit α with αP281C, in the cysteine-free EF1 mutant FH4 (Escherichia coli) (UniProt P0ABB0)
[3] = molecular target: E. coli F1-ATPase subunit α with αE284C, in the cysteine-free EF1 mutant GH19 (Escherichia coli) (UniProt P0ABB0)

E. coli F1-ATPase subunit γ with γK109C, γA213C and γG282C, in the cysteine-free EF1 mutant GH54 (natural protein)
cross-link yield [1]: 90%

E. coli F1-ATPase subunit γ with γK109C and γI279C, in the cysteine-free EF1 mutant FH4 (natural protein)
cross-link yield [2]: 85%

E. coli F1-ATPase subunit γ with γK109C, γA213C and γL276C, in the cysteine-free EF1 mutant GH19 (natural protein)
cross-link yield [3]: > 95%
